Test results published in US20260209362A1 (VIB VZW, published 2026).

T1: biotinylated recombinant human IL-12Rβ2 (human, UniProt Q99665 24-622, random biotinylated)
T1 construct: Recombinant protein produced in-house; also called hIL-12RB2; human IL-12RB2
T1 sequence: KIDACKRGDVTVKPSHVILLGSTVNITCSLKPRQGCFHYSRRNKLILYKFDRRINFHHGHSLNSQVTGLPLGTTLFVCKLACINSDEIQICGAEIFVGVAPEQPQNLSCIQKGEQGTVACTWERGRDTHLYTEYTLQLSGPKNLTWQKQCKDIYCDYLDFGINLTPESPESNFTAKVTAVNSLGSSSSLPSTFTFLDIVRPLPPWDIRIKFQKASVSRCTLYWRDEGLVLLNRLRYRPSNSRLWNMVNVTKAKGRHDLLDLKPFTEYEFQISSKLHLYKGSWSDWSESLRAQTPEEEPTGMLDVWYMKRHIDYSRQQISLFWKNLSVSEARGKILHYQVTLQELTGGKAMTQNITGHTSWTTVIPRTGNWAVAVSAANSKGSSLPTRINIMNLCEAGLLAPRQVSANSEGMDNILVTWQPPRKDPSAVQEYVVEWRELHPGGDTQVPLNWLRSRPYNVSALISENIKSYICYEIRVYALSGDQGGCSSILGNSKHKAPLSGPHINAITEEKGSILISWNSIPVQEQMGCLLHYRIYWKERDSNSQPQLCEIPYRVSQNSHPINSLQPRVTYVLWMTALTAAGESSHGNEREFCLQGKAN

T2: biotinylated recombinant mouse IL-12Rβ2 (mouse, UniProt P97378 24-637, random biotinylated)
T2 construct: Recombinant protein produced in-house; also called mIL-12RB2; mouse IL-12RB2
T2 sequence: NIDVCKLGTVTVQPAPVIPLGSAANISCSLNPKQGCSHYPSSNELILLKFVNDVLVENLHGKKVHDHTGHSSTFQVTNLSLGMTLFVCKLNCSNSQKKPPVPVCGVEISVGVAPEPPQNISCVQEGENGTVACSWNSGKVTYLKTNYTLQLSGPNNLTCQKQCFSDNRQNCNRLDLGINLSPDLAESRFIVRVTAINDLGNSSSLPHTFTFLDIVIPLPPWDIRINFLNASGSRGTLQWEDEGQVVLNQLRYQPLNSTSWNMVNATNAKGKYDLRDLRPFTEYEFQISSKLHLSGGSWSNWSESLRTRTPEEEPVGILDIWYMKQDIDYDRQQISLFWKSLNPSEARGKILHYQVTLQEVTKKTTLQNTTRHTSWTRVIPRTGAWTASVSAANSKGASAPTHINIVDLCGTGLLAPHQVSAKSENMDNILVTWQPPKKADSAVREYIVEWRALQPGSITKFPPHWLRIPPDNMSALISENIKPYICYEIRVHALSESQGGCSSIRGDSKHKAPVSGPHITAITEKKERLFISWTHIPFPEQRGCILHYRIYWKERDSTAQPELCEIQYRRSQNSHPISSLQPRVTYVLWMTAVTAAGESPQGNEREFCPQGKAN


Columns and labels:
[1] = target: T1, biotinylated recombinant human IL-12Rβ2; test: BLI, P.E., off-rate ranking
[2] = target: T2, biotinylated recombinant mouse IL-12Rβ2; test: ELISA, P.E., biotinylated antigen
[3] = target: T1, biotinylated recombinant human IL-12Rβ2; test: ELISA, P.E., biotinylated antigen

Response [1]	koff [1]	ELISA mIL-12RB2/control [2]	ELISA hIL-12RB2/control [3]	Binder
0.438	0.00328 s⁻¹	1.19	5.51	anti-IL-12Rβ2 VHH clone 3CRH14 (clone ID 20374) (VHH, not shown: small tags and cut ends, periplasmic extract) VHH: QVQLQESGGGLVQPGGSLRLSCAASGFTFSTSGMHWFRQAPGKGLEWVSSIGIIVDSSYYADSVKGRFTISRDNAKNTLFLQMNSLKSEDTAVYYCSKDPTGSSRGQGTQVTVSS
0.427	0.00361 s⁻¹	1.39	4.58	anti-IL-12Rβ2 VHH clone 3CRH45 (clone ID 20383) (VHH, not shown: small tags and cut ends, periplasmic extract) VHH: QVQLQESGGGLVQPGGSLRLSCAASGFTFSTFGMHWFRQAPGKGLEWVSSIGIIDDNSYYASSVKGRFTISRDNAKNTLYLQMNSLKSEDTAVYYCSKDTTGSSRGQGTQVTVSS
0.53	0.00353 s⁻¹	1.23	5.01	anti-IL-12Rβ2 VHH clone 2CRH80 (clone ID 20371) (VHH, not shown: small tags and cut ends, periplasmic extract) VHH: QVQLQESGGGLVQPGGSLRLSCAASGFTFSTSGMHWFRQAPGKGLEWVSSIGIIVGSSYYASSVKGRFTISRDNAKNTLYLHMNSLKSEDTAVYYCSKDVTGSSRGQGTQVTVSS
0.296	0.00243 s⁻¹	0.828	4.75	anti-IL-12Rβ2 VHH clone 3CRH43 (clone ID 20382) (VHH, not shown: small tags and cut ends, periplasmic extract) VHH: QVQLQESGGGSVQPGGSLRLSCAASGFTFSTSGMHWFRQAPGKGLEWVSSIGIIVDSSYYASSVKGRFTISRDNAKNIVYLQMNSLKSEDTAVYYCSKDPTGSSRGQGTQVTVSS
0.294	0.00274 s⁻¹	0.984	3.65	anti-IL-12Rβ2 VHH clone 3CRHS128 (clone ID 20432) (VHH, not shown: small tags and cut ends, periplasmic extract) VHH: QVQLQESGGGLVQPGGSLRLSCAASGFTFSTSGMHWFRQAPGKGLEWVSSIGATVDNSYYASSVKGRFTISRDNAKNTLYLLMNSLKSEDTAVYYCSKDPTGSSRGQGTQVTVSS
0.47	0.00479 s⁻¹	1.1	6.58	anti-IL-12Rβ2 VHH clone 3CAHS53 (clone ID 20397) (VHH, not shown: small tags and cut ends, periplasmic extract) VHH: QVQLQESGGGLVEPGGSLRLSCAASGRTINAYIMGWFRQAPGKEREFVAAVSGSGGSTYYADSVKGRFTISRDSAKNTVNLQMDNLRSEDTDVYYCAATYESVYLQNPGQYDYWGQGTQVTVSS

Continued, binder first:

Binder	Response [1]	koff [1]	ELISA mIL-12RB2/control [2]	ELISA hIL-12RB2/control [3]
anti-IL-12Rβ2 VHH clone 3CAHS170 (clone ID 20406) (VHH, not shown: small tags and cut ends, periplasmic extract) VHH: QVQLQESGGGLVQAGGSLRLSCVASGRTFSSYAMGWFRQGPGKEREFVAAISWSGVSIYYADSVKGRFTISRDNAKNTVYLQMNSLEPEDTAVYYCAGTEGAYTVAGGSTFGYDMDYWGKGTQVTVSS	0.515	0.00379 s⁻¹	0.945	5.87
anti-IL-12Rβ2 VHH clone 2CAH27 (clone ID 20354) (VHH, not shown: small tags and cut ends, periplasmic extract) VHH: QVQLQESGGGSVQSGGSLRLSCVASGRTFSSYAMGWFRQGPGKEREFVAAISWSGVSIYYADSVKGRFTISRDNAKNTVYLQMNSLEPEDTAVYYCAGTEGAYTVAGGSTFGYDMDYWGKGTQVTVSS	0.482	0.00494 s⁻¹	1.05	3.84
anti-IL-12Rβ2 VHH clone 2CRH33 (clone ID 20363) (VHH, not shown: small tags and cut ends, periplasmic extract) VHH: QVQLQESGGGSVQPGWSLRLTCAASGFTFSTSGMHWFRQAPGKGLEWVSSISSGGGDTYYTDSVKGRITISRDNAKNTLYLQLNDLKSEDTAVYYCSKDPSGATRGQGTQVTVSS	0.621	0.00491 s⁻¹	0.971	6.44
anti-IL-12Rβ2 VHH clone 2CRH60 (clone ID 20367) (VHH, not shown: small tags and cut ends, periplasmic extract) VHH: QVQLQESGGGSVQPGGSLRLTCAASGFTFSTSGMHWFRQAPGKGLEWVSSISSGGGDTYYTDSVKGRITISRDNAKNTLYLQLNDLKSEDTAVYYCSKDPSGATRGQGTQVTVSS	0.661	0.00533 s⁻¹	0.866	5.31
anti-IL-12Rβ2 VHH clone 3CRH38 (clone ID 20381) (VHH, not shown: small tags and cut ends, periplasmic extract) VHH: QVQLQESGGGLVQAGGSLVLSCAASGSAALIFLMSWYRQAPGKQRELVAEVSRGGSTTYADSVEGRFTISRDNAKNIVDLQMNSLKPEDTAVYYCKADQNYGDSLRSSWGRGTQVTVSS	0.475	0.00413 s⁻¹	1.85	11.8
anti-IL-12Rβ2 VHH clone 3CRHS2 (clone ID 20413) (VHH, not shown: small tags and cut ends, periplasmic extract) VHH: QVQLQESGGGLVQLGGSLTLSCAASGSAALIFLMSWYRQAPGKQRELVAEVSRYGSTTYADSVEGRFTISRDNAKNIVDLQMNSLKPEDTAVYYCKADQYYGDSLRSSWGRGTQVTVSS	0.5	0.00404 s⁻¹	1.01	5.59
anti-IL-12Rβ2 VHH clone 2CRH53 (clone ID 20366) (VHH, not shown: small tags and cut ends, periplasmic extract) VHH: QVQLQESGGGLVQAGGSLVLSCAASGSAALIFLMSWYRQAPGKQRELVAEVSRYGSTTYADSVEGRFTISRDNAKDIVDLQMNSLKPEDTAVYYCKADQYYGDSLRSSWGRGTQVTVSS	0.652	0.00598 s⁻¹	0.967	5.51
anti-IL-12Rβ2 VHH clone 3CRHS1 (clone ID 20412) (VHH, not shown: small tags and cut ends, periplasmic extract) VHH: QVQLQESGGGSVQPGGSLRLSCAASGFTFSTSGMHWFRQAPGKGLEWVSSIGIIVDSSYYASSVKGRFTISRDNAKNTLYLQMNSLKSEDTAVYYCSKDPTGSSRGQGTQVTVSS	0.3	0.00283 s⁻¹	1.01	6.74
anti-IL-12Rβ2 VHH clone 3CRHS109 (clone ID 20430) (VHH, not shown: small tags and cut ends, periplasmic extract) VHH: QVQLQESGGGLVQPGGSLRLSCAASGFTFSTSGMHWFRQAPGKGLEWVSSIGIIVDSSYYASSVKGRFTISRDNAKNTLYLHMNSLKSEDTAVYYCSKDVTGSSRGQGTQVTVSS	0.745	0.0374 s⁻¹	1.07	3.18
anti-IL-12Rβ2 VHH clone 3CAHS39 (clone ID 20393) (VHH, not shown: small tags and cut ends, periplasmic extract) VHH: QVQLQESGGGLVQAGGSLRLSCAASGRTINAYIMGWFRQAPGKEREFVAAVSGSGGSTYYADSVKGRFTISRDNAKNTVNLQMDNLRSEDTDVYYCAATYESVYLQNPGQYDYWGQGTQVTVSS	0.612	0.00508 s⁻¹	1.14	4.73
anti-IL-12Rβ2 VHH clone 3CAHS150 (clone ID 20403) (VHH, not shown: small tags and cut ends, periplasmic extract) VHH: QVQLQESGGGSVQAGGSLRLSCAASGRTINAYVMGWFRQAPGKEREFVAAISGSGGSTYYADSVKGRFTISRDNAKNTVNLQMDNLRSEDTDVYYCAATYESVYLQNPGQYDYWGQGTQVTVSS	0.31	0.00369 s⁻¹	0.988	4.54
anti-IL-12Rβ2 VHH clone 3CAHS124 (clone ID 20400) (VHH, not shown: small tags and cut ends, periplasmic extract) VHH: QVQLQESGGGLVQPGGSLRLSCAASGRTINAYIMGWFRQAPGKEREFVAAVSGSGGSTYYADSVKGRFTISRDNAKNTVNLQMDNLRSEDTDVYYCAATYESVYLQNPGQYDYWGQGTQVTVSS	0.293	0.00324 s⁻¹	1	5.67
anti-IL-12Rβ2 VHH clone 3CAHS52 (clone ID 20396) (VHH, not shown: small tags and cut ends, periplasmic extract) VHH: QVQLQESGGGSVQAGGSLRLSCAASGRTINAYIMGWFRQAPGKEREFVAAVSGSGGSTYYADSVKGRFTISRDNAKNTVNLQMDNLRSEDTDVYYCAATYESVYLQNPGQYDYWGQGTQVTVSS	0.508	0.00422 s⁻¹	1.22	10
anti-IL-12Rβ2 VHH clone 3CAHS43 (clone ID 20395) (VHH, not shown: small tags and cut ends, periplasmic extract) VHH: QVQLQESGGGSVQAGGSLRLSCAASGRTINAYIMGWFRQAPGKEREFVAAVSGSGGSTYYADSVKGRFTISRDNAKNTVNLQMDNLRSEDTDVYYCAATYESVYLRNPGQYDYWGQGTQVTVSS	0.605	0.00485 s⁻¹	1.31	8.23
